This note sets out measurements from patent US9518103B2, “Optogenetic probes for measuring membrane potential” (President and Fellows of Harvard College, priority 2014, dated 2016).

Experiment [1] deals with cultured rat hippocampal neurons. Description: Photocurrent in cultured rat hippocampal neurons. The format is cell-based. To be noted: for photocurrent (in words): red (640 nm, 300 W/cm^2, tested up to 900 W/cm^2) or blue (488 nm, 500 mW/cm^2) illumination; for photocurrent: red illumination (640 nm, 300 W/cm^2). The procedure: FIGS. 4A-4B show the photophysics of QuasArs in mammalian cells. […] Steady state photocurrents were calculated by averaging the current over the last 0.25 seconds of light exposure and subtracting the holding current (cells held at −65 mV) in the dark. These currents hyperpolarized cells by 25±4 mV and 19±3 mV, respectively. […] The double mutants had mutations at the locations of the proton acceptor (Asp95) and proton donor (Asp106) to the Schiff base. QuasAr1 includes mutations D95H, D106H, and QuasAr2 includes mutations D95Q, D106H. The three additional backbone mutations in the QuasArs (P60S, T80S, F161V) increased brightness relative to the double mutants, Fluorescence of each Arch mutant was measured with excitation at 640 nm and emission from 660-760 nm. To control for variation in expression level, fluorescence was normalized by eGFP fluorescence (λexc=488 nm, λem=510−550 nm). Error bars represent s.e.m. for measurements on n=5-10 cells.
Measurements were performed on primary cultures at 13-15 DIV. Experiments were conducted in Tyrode's solution containing 125 mM NaCl, 2.5 mM KCl, 3 mM CaCl2, 1 mM MgCl2, 10 mM HEPES, 30 mM glucose (pH 7.3) and adjusted to 305-310 mOsm with sucrose. Prior to imaging, neurons were incubated with 5 μM all-trans retinal for 30 minutes and then washed with Tyrode's solution.
Synaptic blockers were added to the imaging medium for measurements of single-cell electrophysiology (Arch photocurrents, and single-cell excitability). The blockers comprised NBQX (10 μM, Tocris), D(−)-2-amino-5-phosphonovaleric acid (APS; […]), and gabazine (SR-95531, 20 μM, Tocris). For measurements of channel rhodopsin photocurrents in neurons, TTX (1 μM, Tocris) was included along with the synaptic blockers to prevent recruitment of voltage gated sodium channels. […] Recordings were terminated if membrane resistance changed by >10%. Experiments were performed at 23° C. under ambient atmosphere unless otherwise noted.

Experiment [2] has the same test system. Description: Single-trial detection of neuronal action potentials with eFRET GEVIs. The format is cell-based. To be noted: 3 W/cm^2 illumination, exposure times compatible with single action potentials. The text has this: We further characterized the most sensitive eFRET voltage sensors via transient transfection in cultured rat hippocampal neurons. […] Injection of current pulses via a patch pipette (500-600 pA, 5-10 ms, 5 Hz) induced trains of action potentials, which induced downward fluorescence transients of 12% (YFP), 12% (mOrange2), 7% (mRuby2).
The signal-to-noise ratio (SNR) of fluorescence detection, defined as the ratio of the peak amplitude to standard deviation of fluorescence at the baseline, was 6.6 (YFP), 11.6 (mOrange2), and 10.5 (mRuby2). In all cases images were acquired at 1 kHz with 3 W/cm^2 illumination intensity. Previous measurements with QuasAr2 reported an SNR of 30-70 at the same bandwidth but with 800 W/cm^2 illumination.

Residue numbers refer to the chain shown, from its start. Numbers in names are those of the source. Entries after “also recorded” stand apart in the source; their conditions may differ.

B1: QuasAr1: Archaerhodopsin 3 variant with mutations P60S, T80S, D95H, D106H, F161V; genetically encoded voltage indicator (protein)
chain: MDPIALQAGYDLLGDGRPETLWLGIGTLLMLIGTFYFLVRGWGVTDKDAREYYAVTILVSGIASAAYLSMFFGIGLTEVSVGGEMLDIYYARYAHWLFTTPLLLLHLALLAKVDRVTIGTLVGVDALMIVTGLIGALSHTAIARYSWWLFSTICMIVVLYVLATSLRSAAKERGPEVASTFNTLTALVLVLWTAYPILWIIGTEGAGVVGLGIETLLFMVLDVTAKVGFGFILLRSRAILGDTEAPEPSAGADVSAAD
B1: in experiment [1], the “photocurrent (in words)” value was “Neither QuasAr1 nor QuasAr2 generated detectable photocurrent; also recorded: Neither QuasAr1 (n=9 cells) nor QuasAr2 (n=7 cells) generated detectable photocurrents” and the photocurrent is on record as 0 pA.

B2: QuasAr2: Archaerhodopsin 3 variant with mutations P60S, T80S, D95Q, D106H, F161V; genetically encoded voltage indicator (protein)
chain: B1 chain with H95Q
In the case of B2, in experiment [2], the direct fluorescence entry was “not detectable”. Also, in experiment [1], the “photocurrent (in words)” value is reported as “Neither QuasAr1 nor QuasAr2 generated detectable photocurrent; also recorded: Neither QuasAr1 (n=9 cells) nor QuasAr2 (n=7 cells) generated detectable photocurrents” and the photocurrent came to 0 pA.
